In the RNAGym collection of RNA variant scans (doi:10.1101/gr.219683.116):

B1: mRNA-splicing (parent)
chain: AGUUGCUGCUGGGAGCUCCAGCACAGUGAAAUGGACAGAAGGGCAGAGCAA

Variants of: B1
Test: exon inclusion enrichment index; higher = more inclusion; WT1 exon 5 minigene, HEK293

Variant | exon inclusion enrichment index
G5A C6U U7A G8U C9A A35U C36A | 0.000817
G5A C6U U7A G8U C9A A35U C36G | 0.00319
G5A C6U U7A G8U C9A A35U C36U | 0.000729
G5A C6U U7A G8U C9A C36G | 0.0434
G5A C6U U7A G8U C9A C36A | 0.0298
G5A C6U U7A G8U C9A C36U | 0.00462
G5A C6U U7A G8U C9A G34A A35G | 0.00212
G5A C6U U7A G8U C9A G34A A35C | 0.0538
G5A C6U U7A G8U C9A G34A A35U | 0.00832
G5A C6U U7A G8U C9A A45C | 0.106
G5A C6U U7A G8U C9A A45G | 0.212
G5A C6U U7A G8U C9A A45U | 0.132
G5A C6U U7A G8U C9A G38C A39U | 0.0021
G5A C6U U7A G8U C9A G38C A39C | 0.105
G5A C6U U7A G8U C9A G38C A39G | 0.115
G5A C6U U7A G8U C9A A29U | 0.0147
G5A C6U U7A G8U C9A A29G | 0.164
G5A C6U U7A G8U C9A A29C | 0.0477
G5A C6U U7A G8U C9A A30C A31C | 0.126
G5A C6U U7A G8U C9A A30C A31G | 0.168
G5A C6U U7A G8U C9A A30C A31U | 0.0899
G5A C6U U7A G8U C9A G13C A14U | 0.0623
G5A C6U U7A G8U C9A G13C A14C | 0.039
G5A C6U U7A G8U C9A G13C A14G | 0.145

Variant | exon inclusion enrichment index
G5A C6U U7A G8U C9A C22A A23G | 0.0409
G5A C6U U7A G8U C9A C22A A23U | 0.0397
G5A C6U U7A G8U C9A C22A A23C | 0.189
G5A C6U U7A G8U C9A G11C G12A | 0.0128
G5A C6U U7A G8U C9A G11C G12U | 0.0197
G5A C6U U7A G8U C9A G11C G12C | 0.0512
G5A C6U U7A G8U C9A A40C G41U | 0.0189
G5A C6U U7A G8U C9A A40C G41C | 0.455
G5A C6U U7A G8U C9A A40C G41A | 0.00954
G5A C6U U7A G8U C9A C36U A37C | 0.0296
G5A C6U U7A G8U C9A C36U A37G | 0.0518
G5A C6U U7A G8U C9A C36U A37U | 0.0384
G5A C6U U7A G8U C9A G12A | 0.0361
G5A C6U U7A G8U C9A G12U | 0.0278
G5A C6U U7A G8U C9A G12C | 0.0374
G5A C6U U7A G8U C9A A37U G38A | 0.0163
G5A C6U U7A G8U C9A A37U G38U | 0.0205
G5A C6U U7A G8U C9A A37U G38C | 0.0673
G5A C6U U7A G8U C9A A31G U32G | 0.0411
G5A C6U U7A G8U C9A A31G U32A | 0.855
G5A C6U U7A G8U C9A A31G U32C | 0.424
G5A C6U U7A G8U C9A C24G | 0.0851
G5A C6U U7A G8U C9A C24U | 0.00831
G5A C6U U7A G8U C9A C24A | 0.0667

Variant | exon inclusion enrichment index
G5A C6U U7A G8U C9A C44G A45C | 0.138
G5A C6U U7A G8U C9A C44G A45G | 0.0089
G5A C6U U7A G8U C9A C44G A45U | 0.0272
G5A C6U U7A G8U C9A G28U A29G | 0.0696
G5A C6U U7A G8U C9A G28U A29C | 0.0467
G5A C6U U7A G8U C9A G28U A29U | 0.00744
G5A C6U U7A G8U C9A C16A U17A | 0.0573
G5A C6U U7A G8U C9A C16A U17C | 0.0702
G5A C6U U7A G8U C9A C16A U17G | 0.0322
G5A C6U U7A G8U C9A A45G G46U | 0.0592
G5A C6U U7A G8U C9A A45G G46A | 0.447
G5A C6U U7A G8U C9A A45G G46C | 0.131
G5A C6U U7A G8U C9A G12A G13C | 0.0112
G5A C6U U7A G8U C9A G12A G13A | 0.027
G5A C6U U7A G8U C9A G12A G13U | 0.000604
G5A C6U U7A G8U C9A C16A | 0.0643
G5A C6U U7A G8U C9A C16G | 0.0112
G5A C6U U7A G8U C9A C16U | 0.0512
G5A C6U U7A G8U C9A A45U G46U | 0.0214
G5A C6U U7A G8U C9A A45U G46C | 0.0684
G5A C6U U7A G8U C9A A45U G46A | 0.0424
G5A C6U U7A G8U C9A A35G C36A | 0.0117
G5A C6U U7A G8U C9A A35G C36G | 0.00488
G5A C6U U7A G8U C9A A35G C36U | 0.00124

Variant | exon inclusion enrichment index
G5A C6U U7A G8U C9A A47G G48U | 0.00228
G5A C6U U7A G8U C9A A47G G48A | 0.0214
G5A C6U U7A G8U C9A A47G G48C | 0.0173
G5A C6U U7A G8U C9A G11A | 0.00945
G5A C6U U7A G8U C9A G11U | 0.0798
G5A C6U U7A G8U C9A G11C | 0.191
G5A C6U U7A G8U C9A G26U U27A | 0.0488
G5A C6U U7A G8U C9A G26U U27C | 0.536
G5A C6U U7A G8U C9A G26U U27G | 0.261
G5A C6U U7A G8U C9A C16G U17G | 0.00515
G5A C6U U7A G8U C9A C16G U17C | 0.00521
G5A C6U U7A G8U C9A C16G U17A | 0.0334
G5A C6U U7A G8U C9A A35G | 0.017
G5A C6U U7A G8U C9A A35C | 0.00811
G5A C6U U7A G8U C9A A35U | 0.00487
G5A C6U U7A G8U C9A G21U C22U | 0.00572
G5A C6U U7A G8U C9A G21U C22A | 0.0356
G5A C6U U7A G8U C9A G21U C22G | 0.0561
G5A C6U U7A G8U C9A G21A | 0.071
G5A C6U U7A G8U C9A G21U | 0.0639
G5A C6U U7A G8U C9A G21C | 0.0844
G5A C6U U7A G8U C9A G11A G12C | 0.0285
G5A C6U U7A G8U C9A G11A G12A | 0.00659
G5A C6U U7A G8U C9A G11A G12U | 0.01

Variant | exon inclusion enrichment index
G5A C6U U7A G8U C9A A25G G26A | 0.36
G5A C6U U7A G8U C9A A25G G26C | 0.493
G5A C6U U7A G8U C9A A25G G26U | 0.231
G5A C6U U7A G8U C9A A25G | 0.293
G5A C6U U7A G8U C9A A25C | 0.501
G5A C6U U7A G8U C9A A25U | 0.138
G5A C6U U7A G8U C9A A37G G38C | 0.113
G5A C6U U7A G8U C9A A37G G38A | 0.0869
G5A C6U U7A G8U C9A A37G G38U | 0.0165
G5A C6U U7A G8U C9A A37C G38C | 0.0761
G5A C6U U7A G8U C9A A37C G38A | 0.0896
G5A C6U U7A G8U C9A A37C G38U | 0.00922
G5A C6U U7A G8U C9A G34C A35G | 0.0452
G5A C6U U7A G8U C9A G34C A35C | 0.00243
G5A C6U U7A G8U C9A G34C A35U | 0.0109
G5A C6U U7A G8U C9A A45C G46U | 0.0134
G5A C6U U7A G8U C9A A45C G46C | 0.0306
G5A C6U U7A G8U C9A A45C G46A | 0.0341
G5A C6U U7A G8U C9A C19G A20U | 0.0389
G5A C6U U7A G8U C9A C19G A20C | 0.0894
G5A C6U U7A G8U C9A C19G A20G | 0.0128
G5A C6U U7A G8U C9A G26A U27A | 0.122
G5A C6U U7A G8U C9A G26A U27G | 0.168
G5A C6U U7A G8U C9A G26A U27C | 0.504

Variant | exon inclusion enrichment index
G5A C6U U7A G8U C9A C44A A45U | 0.189
G5A C6U U7A G8U C9A C44A A45C | 0.248
G5A C6U U7A G8U C9A C44A A45G | 0.0995
G5A C6U U7A G8U C9A A31U U32A | 0.0012
G5A C6U U7A G8U C9A A31U U32C | 0.168
G5A C6U U7A G8U C9A A31U U32G | 0.0286
G5A C6U U7A G8U C9A A39C | 0.0192
G5A C6U U7A G8U C9A A39G | 0.00842
G5A C6U U7A G8U C9A A39U | 0.0074
G5A C6U U7A G8U C9A C22U A23G | 0.0485
G5A C6U U7A G8U C9A C22U A23U | 0.0179
G5A C6U U7A G8U C9A C22U A23C | 0.0341
G5A C6U U7A G8U C9A G12C G13C | 0.0141
G5A C6U U7A G8U C9A G12C G13U | 0.000527
G5A C6U U7A G8U C9A G12C G13A | 0.0284
G5A C6U U7A G8U C9A A40G | 0.0627
G5A C6U U7A G8U C9A A40C | 0.241
G5A C6U U7A G8U C9A A40U | 0.0441
G5A C6U U7A G8U C9A A23G | 0.157
G5A C6U U7A G8U C9A A23U | 0.0353
G5A C6U U7A G8U C9A G33U G34C | 0.00527
G5A C6U U7A G8U C9A G33U G34A | 0.0131
G5A C6U U7A G8U C9A G33U G34U | 0.0031
G5A C6U U7A G8U C9A A30U A31U | 0.0488

Variant | exon inclusion enrichment index
G5A C6U U7A G8U C9A A30U A31G | 0.0609
G5A C6U U7A G8U C9A A30U A31C | 0.064
G5A C6U U7A G8U C9A G33A G34A | 0.0009
G5A C6U U7A G8U C9A G33A G34U | 0.0125
G5A C6U U7A G8U C9A G33A G34C | 0.0195
G5A C6U U7A G8U C9A G12U G13C | 0.00721
G5A C6U U7A G8U C9A G12U G13U | 0.00049
G5A C6U U7A G8U C9A G12U G13A | 0.00185
G5A C6U U7A G8U C9A C19A A20U | 0.0348
G5A C6U U7A G8U C9A C19A A20C | 0.0154
G5A C6U U7A G8U C9A C19A A20G | 0.00271
G5A C6U U7A G8U C9A G26A | 0.141
G5A C6U U7A G8U C9A G26U | 0.0898
G5A C6U U7A G8U C9A G26C | 0.142
G5A C6U U7A G8U C9A A29G A30C | 0.0104
G5A C6U U7A G8U C9A A29G A30G | 0.0286
G5A C6U U7A G8U C9A A29G A30U | 0.00704
G5A C6U U7A G8U C9A G28A A29C | 0.0311
G5A C6U U7A G8U C9A G28A A29U | 0.00845
G5A C6U U7A G8U C9A G28A A29G | 0.00353
G5A C6U U7A G8U C9A A39U A40C | 0.142
G5A C6U U7A G8U C9A A39U A40U | 0.0161
G5A C6U U7A G8U C9A A39U A40G | 0.0054
